This is an account of results in patent US9976167B2, “Group of glycosyltransferases and use thereof” (Shanghai Institutes For Biological Sciences, Chinese …, priority 2012, dated 2018).

What all share (type): biochemical
Data set [1] can be described thus: Glycosyltransfering reaction with crude enzyme, substrate PPD. Particulars: UDP-glucose, 35° C., 12 hrs, TLC. The protocol: (§1) The lysate supernatant of the recombinant yeasts expressing the empty vector was used as control.
(§2) The reaction was conducted under 35° C. for 12 hrs, then stopped by adding 100 μL of butanol. The product were extracted, dried in vacuum, and dissolved in methanol.
(§3) The reaction products were first detected by thin layer chromatography (TLC).
(§4) The converted products of gGT25 were further identified by HPLC (FIG. 10 and FIG. 11). The retention time of peak 2 was identical to that of the CK standard sample; the retention time of peak 3 was identical to that of PPD. […] Peak 1, also present in the profile of the negative control, indicated its irrelevance to the conversion of PPD. 3 peaks were shown in FIG. 11, the retention time of peak 1 was identical to that of F1 standard sample and peak 3 was identical to that of PPT. […] Peak 2, also present in the profile of the negative control, indicated its irrelevance to the conversion of PPT.
(§5) According to the method as in Example 4, the cell lysate of recombinant yeasts expressing gGT13 and gGT30 were used to catalyze PPD and PPT.
The cell lysis supernatant of the recombinant E. coli was used as crude enzyme to conduct the glycosyltransfering reaction, and the reaction condition was identical to that of Example 4.
The reaction was conducted under 35° C. for 12 hrs. 100 μL of butanol was added to stop the reaction and the products were extracted. Upon vacuum drying, the product was dissolved by methanol. TLC was first used to detect the reaction product.
(§6) The glycosyltransfering reactions of ginsenosides and ginsengenins were catalyzed by using the lysis supernatant of the recombinant yeasts expressing 3GT1, 3GT2, 3GT3 and 3GT4 as crude enzymes. The lysis supernatant of recombinant E. coli expressing empty vectors was used as control. The 100 μL reaction system is shown as Table 3. The reaction was conducted under 35° C. for 12 hrs, then stopped by adding 100 μL of butanol. The product were extracted, dried in vacuum, and dissolved in methanol.
The reaction was conducted under 35° C. for 12 hrs, and then stopped by adding 100 μL of butanol. The product were extracted, dried in vacuum, and dissolved in methanol. The reaction products were first detected by thin layer chromatography (TLC) (FIG. 35).

Data set [2] can be described thus: Glycosyltransfering activities on ginsengenins and saponins: glycosylation site and specificity (summary). The protocol:
More than 100 predicted cDNA sequences of glycosyltransferases were extracted from the published expression profile data of the Panax plant. 60 cDNAs with full length were cloned, expressed, and subjected to the analysis of glycosyltransfering reaction.
as §1, §2, §6
(§7) The lysate supernatant of the recombinant yeast expressing empty vectors was used as control. The reaction was conducted under 35° C. for 12 hrs, and then stopped by adding 100 μL of butanol. The product were extracted, dried in vacuum, and dissolved in methanol.
(§8) The glycosyltransfering reactions of ginsenosides Rh2 and F2 were catalyzed by using the lysate supernatant of the recombinant yeasts expressing 3GT1, 3GT2, 3GT3 and 3GT4 as crude enzymes. The 100 μL reaction system is shown as Table 3. The reaction was conducted under 35° C. for 12 hrs, and then stopped by adding 100 μL of butanol. The product were extracted, dried in vacuum, and dissolved in methanol.

Data set [3] is described as follows: Glycosyltransfering reaction with crude enzyme, substrate CK. Particulars: crude enzyme of Example 11; 35° C., 12 hrs; TLC. The protocol:
as §5, §6

Data set [4] in a line: Glycosyltransfering reaction with crude enzyme, substrate PPT. The conditions noted are these: 35° C., 12 hrs, TLC. The protocol: as §1, §2, §3, §4, §5, §6
Data set [5] can be described thus: Glycosyltransfering reaction with crude enzyme, substrate 25-OH-PPD. The conditions noted are these: 35° C., 12 hrs, TLC. As to the method: as §6
Data set [6] can be described thus: Glycosyltransfering reaction with crude enzyme, substrate PPT. Particulars: crude enzyme: lysate supernatant of recombinant E. coli; UDP-glucose, 35° C., 12 hrs; TLC.
Data set [7] in a line: Glycosyltransfering reaction with crude enzyme, substrate Rh1. The conditions noted are these: crude enzyme: lysate supernatant of recombinant yeast; UDP-glucose, 35° C., 12 hrs; TLC. The protocol:
as §1, §2
(§9) The reaction products were first detected by thin layer chromatography (TLC). […]

Data set [8] is described as follows: Glycosyltransfering reaction with crude enzyme, substrate Rg2. The conditions noted are these: crude enzyme: lysate supernatant of recombinant yeast; UDP-glucose, 35° C., 12 hrs; TLC. As to the method:
as §1, §2, §3

A short description of data set [9]: Glycosyltransfering reaction with crude enzyme, substrate Rh2. Particulars: crude enzyme: lysate supernatant of recombinant yeast; UDP-glucose, 35° C., 12 hrs; TLC. The protocol: as §1, §2, §9, §7, §8
Data set [10] is described as follows: Glycosyltransfering reaction with crude enzyme, substrate Rg3. The conditions noted are these: crude enzyme: lysate supernatant of recombinant yeast; UDP-glucose, 35° C., 12 hrs; TLC. The protocol: as §1, §2, §9
A short description of data set [11]: Glycosyltransfering reaction with crude enzyme, substrate Rf. Particulars: crude enzyme: lysate supernatant of recombinant yeast; UDP-glucose, 35° C., 12 hrs; TLC. The protocol: as §1, §2, §3
Data set [12] in a line: Glycosyltransfering reaction with crude enzyme, substrate DM. Particulars: crude enzyme: lysate supernatant of recombinant yeast; UDP-glucose, 35° C., 12 hrs; TLC. The protocol:
as §1, §2, §3, §6

[13] abbreviates: Table 2, tetracyclic triterpenoid substrates.
The mark [14] stands for this setting: crude enzyme: lysate supernatant of recombinant yeast, UDP-glucose.

B1: 3GT3: glycosyltransferase protein with 497 amino acids, SEQ ID NO.: 41; homology with a Medicago truncatula glycosyltransferase higher than 99% (protein, listed as Medicago truncatula)
chain: MEGVEVEQPLKVYFIPFLASGHMIPLFDIATMFASRGQQVTVITTPANAKSLTKSLSSDAPSFLRLHTVDFPSQQVGLPEGIESMSSTTDPTTTWKIHTGAMLLKEPIGDFIENDPPDCIISDSTYPWVNDLADKFQIPNITFNGLCLFAVSLVETLKTNNLLKSQTDSDSDSSSFVVPNFPHHITLCGKPPKVIGIFMGMMLETVLKSKALIINNFSELDGEECIQHYEKATGHKVWHLGPTSLIRKTAQEKSERGNEGAVNVHESLSWLDSERVNSVLYICFGSINYFSDKQLYEMACAIEASGHPFIWVVPEKKGKEDESEEEKEKWLPKGFEERNIGKKGLIIRGWAPQVKILSHPAVGGFMTHCGGNSTVEAVSAGVPMITWPVHGDQFYNEKLITQFRGIGVEVGATEWCTSGVAERKKLVSRDSIEKAVRRLMDGGDEAENIRLRAREFGEKAIQAIQEGGSSYNNLLALIDELKRSRDLKRLRDLKLDD
modifications: 3GT3
Consider B1, for which, in data set [1] (crude enzyme: lysate supernatant of recombinant E. coli), the “substrate that could be catalyzed: PPD” value is “✓”. For the same molecule, the “glycosylation site: C-3” value in data set [2] (setting [13]) was “✓”. The “substrate spectrum / specificity” value in data set [2] (comparison of 3GT1, 3GT2, 3GT3 and 3GT4, Table 6) is “least number of substrates”. For the same molecule, the “glycosylation of C3-OH of CK (product F2)” value in data set [3] is listed as “further glycosylating its C3-OH”. Further, in data set [4] (crude enzyme of Example 11), the “glycosylation of C3-OH of PPT (product 3-O-β-(D-glucopyranosyl)-PPT)” value was “could be glycosylated”. Moreover, the “glycosylation of C3-OH of 25-OH-PPD (product 3-O-β-(D-glucopyranosyl)-25-OH-PPD)” value in data set [5] (crude enzyme of Example 11) is listed as “could be glycosylated”. Moreover, in data set [5] (crude enzyme: lysate supernatant of recombinant E. coli, UDP-glucose), the “substrate that could be catalyzed: 25-OH-PPD” value was “✓”. Moreover, the “substrate that could be catalyzed: PPT” value in data set [6] is listed as “✓”.

B2: gGT25-3: glycosyltransferase protein with 475 amino acids, SEQ ID NO.: 18 (protein)
chain: MKSELIFLPAPAIGHLVGMVEMAKLFISRHENLSVTVLIAKFYMDTGVDNYNKSLLTNPTPRLTIVNLPETDPQNYMLKPRHAIFPSVIETQKTHVRDIISGMTQSESTQVVGLLADLLFINIMDIANEFNVPTYVYSPAGAGHLGLAFHLQTLNDKKQDVTEFRNSDTELLVPSFANPVPAEVLPSMYVDKEGGYDYLFSLFRRCRESKAIIINTFEELEPYAINSLRMDSMIPPIYPVGPILNLNGDGQNSDEAAVILGWLDDQPPSSVVFLCFGSYGSFQENQVKEIAMGLERSGHRFLWSLRPSIPKGETKLQLKYSNLKEILPVGFLDRTSCVGKVIGWAPQVAVLGHESVGGFLSHCGWNSTLESVWCGVPVATWPMYGEQQLNAFEMVKELGIAVEIEVDYKKDYFNMKNDFIVRAEEIETKIKKLMMDENNSEIRKKVKEMKEKSRAAMSENGSSYNSLAKLFEEIM
modifications: Panax ginseng; gGT25-3
For B2, in [1] (crude enzyme: lysate supernatant of recombinant yeast), the “glycosylation of C20-OH of PPD (product CK)” value was “glycosylated the C20-OH”. Further, in data set [7], the “glycosylation of C20-OH of Rh1” value is listed as “could not be catalyzed”. Moreover, in data set [2] (setting [13]), the “glycosylation site: C6” value was “✓” and the “glycosylation site: C20” value is “✓”. Also, the “extension of carbohydrate chain” value in data set [2] (crude enzyme: lysate supernatant of recombinant yeast, UDP-glucose, 35° C., 12 hrs, TLC) is on record as “could not catalyze”. The “glycosylation of C20-OH of Rg2” value in [8] is “could not be catalyzed”. Moreover, in data set [9], the “glycosylation of C20-OH of Rh2 (product F2)” value is listed as “further glycosylated at C20-OH”. The “glycosylation of C20-OH of Rg3 (product Rd)” value in data set [10] is recorded as “further glycosylated at C20-OH”. Further, in data set [4] (setting [14]), the “glycosylation of C6-OH of PPT (product Rg1 or Rh1)” value was “C6-OH could be further glycosylated” and the “glycosylation of C20-OH of PPT (product F1)” value is “glycosylated the C20-OH”. For the same molecule, in data set [11], the “glycosylation of C20-OH of Rf” value was “could not be catalyzed”. The “glycosylation of C20-OH of DM (product 20-O-β-(D-glucopyranosyl)-dammarendiol II)” value in [12] is reported as “could also glycosylate C20-OH”.
